Experimental data as given in patent publication US20250179187A1 (REJUVERON SENESCENCE THERAPEUTICS, published 2025).

Molecular target: T1, recombinant human PD-L2 (human PD-L2 antigen) (human, UniProt Q9BQ51 20-219, limits assumed)
T1 construct: The Biacore analyte and the ELISA antigen are only called human PD-L2 antigen / recombinant hPD-L2; Whole entry named; also called hPD-L2; recombinant hPD-L2
T1 sequence (looked up): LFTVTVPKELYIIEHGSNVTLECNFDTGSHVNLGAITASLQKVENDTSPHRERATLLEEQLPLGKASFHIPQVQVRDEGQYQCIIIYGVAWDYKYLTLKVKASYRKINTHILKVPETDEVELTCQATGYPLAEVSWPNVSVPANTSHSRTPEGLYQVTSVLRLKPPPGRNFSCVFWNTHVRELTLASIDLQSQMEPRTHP
Experiment: SPR (Biacore 8K), single cycle kinetics, antibody in culture supernatant, human PD-L2 antigen
Description: Table 2: Single cycle kinetic parameters of chimeric (VH0/VK0) and humanized variants (tested as cell culture supernatants) binding to human PD-L2 antigen as determined using the Biacore 8K. As used herein, the term “KD” is intended to refer to the dissociation equilibrium constant of a particular antibody-antigen interaction, ka is the binding rate constant and kd is the dissociation rate constant. The binding affinity of antibodies of the disclosed invention may be measured or determined by standard antibody-antigen assays. The relative KD was calculated by dividing the KD of the humanized variant by that of the VH0/VK0 assayed in the same experiment.

B1: VH0/VK1 (antibody, V domains shown)
VH: QVQLQQSGAELVRPGTSVKVSCKASGYAFSNYFIEWVKQRPGQGLEWIGLNIPGSGGSNYAEKFKGKATLTADKSSSTAYMQLSSLTSEDSAVYFCARRRLPPDWYFDVWGTGTTVTVSS
VL: DVVMTQSPLSLPVTLGQPASISCRSSQSLVHSDGNTYLHWYQQKPGQPPKLLIYKVSNRFSGVPDRFSGSGSGTDFTLKISRVEAEDVGVYFCSQSTHVPWTFGGGTKVEIK
notes: hIgG1 backbone, CHO expressed
With B1 the Kd was 0.0379 nM, the “Relative KD (KD of variant / KD of VH0/VK0)” value was 1.06 and the koff was 9.88e-05 s⁻¹.

B2: VH2/VK1 (antibody, V domains shown)
VH: QVQLVQSGAEVKKPGSSVKVSCKASGYAFSNYFIEWVKQPPGKGLEWIGLNIPGSGGSNYAEKFKGRATITADKSTSTAYMELSSLRSEDSAVYFCARRRLPPDWYFDVWGQGTTVTVSS
VL: DVVMTQSPLSLPVTLGQPASISCRSSQSLVHSDGNTYLHWYQQKPGQPPKLLIYKVSNRFSGVPDRFSGSGSGTDFTLKISRVEAEDVGVYFCSQSTHVPWTFGGGTKVEIK
notes: hIgG1 backbone, CHO expressed
In the case of B2, the Kd is reported as 0.0551 nM, the “Relative KD (KD of variant / KD of VH0/VK0)” value is reported as 1.54 and the koff is reported as 0.000119 s⁻¹.

B3: VH3/VK2 (antibody, V domains shown)
VH: QVQLVQSGAEVKKPGSSVKVSCKASGYAFSNYFIEWVKQPPGKGLEWIGLNIPGSGGSNYAEKFKGRVTITADKSTSTAYMELSSLRSEDSAVYFCARRRLPPDWYFDVWGQGTTVTVSS
VL: DVVMTQSPLSLPVTLGQPASISCRSSQSLVHSDGNTYLHWYQQKPGQPPKLLIYKVSNRFSGVPDRFSGSGSGTDFTLKISRVEAEDVGVYYCSQSTHVPWTFGGGTKVEIK
notes: hIgG1 backbone, CHO expressed
In the case of B3, the Kd is reported as 0.0604 nM, the “Relative KD (KD of variant / KD of VH0/VK0)” value is reported as 1.69 and the koff is reported as 0.000132 s⁻¹.

B4: VH3/VK1 (antibody, V domains shown)
VH: QVQLVQSGAEVKKPGSSVKVSCKASGYAFSNYFIEWVKQPPGKGLEWIGLNIPGSGGSNYAEKFKGRVTITADKSTSTAYMELSSLRSEDSAVYFCARRRLPPDWYFDVWGQGTTVTVSS
VL: DVVMTQSPLSLPVTLGQPASISCRSSQSLVHSDGNTYLHWYQQKPGQPPKLLIYKVSNRFSGVPDRFSGSGSGTDFTLKISRVEAEDVGVYFCSQSTHVPWTFGGGTKVEIK
notes: hIgG1 backbone, CHO expressed
With B4 the Kd was 0.0606 nM, the “Relative KD (KD of variant / KD of VH0/VK0)” value was 1.69 and the koff was 0.000128 s⁻¹.

B5: VH2/VK2 (antibody, V domains shown)
VH: QVQLVQSGAEVKKPGSSVKVSCKASGYAFSNYFIEWVKQPPGKGLEWIGLNIPGSGGSNYAEKFKGRATITADKSTSTAYMELSSLRSEDSAVYFCARRRLPPDWYFDVWGQGTTVTVSS
VL: DVVMTQSPLSLPVTLGQPASISCRSSQSLVHSDGNTYLHWYQQKPGQPPKLLIYKVSNRFSGVPDRFSGSGSGTDFTLKISRVEAEDVGVYYCSQSTHVPWTFGGGTKVEIK
notes: hIgG1 backbone, CHO expressed
In the case of B5, the Kd is reported as 0.0555 nM, the “Relative KD (KD of variant / KD of VH0/VK0)” value is reported as 1.55 and the koff is reported as 0.000122 s⁻¹.

B6: VH4/VK1 (antibody, V domains shown)
VH: QVQLVQSGAEVKKPGSSVKVSCKASGYAFSNYFIEWVKQPPGKGLEWIGLNIPGSGGSNYAEKFKGRVTITADKSTSTAYMELSSLRSEDTAVYYCARRRLPPDWYFDVWGQGTTVTVSS
VL: DVVMTQSPLSLPVTLGQPASISCRSSQSLVHSDGNTYLHWYQQKPGQPPKLLIYKVSNRFSGVPDRFSGSGSGTDFTLKISRVEAEDVGVYFCSQSTHVPWTFGGGTKVEIK
notes: hIgG1 backbone, CHO expressed
For B6, the Kd was 0.0586 nM, the “Relative KD (KD of variant / KD of VH0/VK0)” value was 1.64 and the koff was 0.000125 s⁻¹.

B7: VH2/VK3 (antibody, V domains shown)
VH: QVQLVQSGAEVKKPGSSVKVSCKASGYAFSNYFIEWVKQPPGKGLEWIGLNIPGSGGSNYAEKFKGRATITADKSTSTAYMELSSLRSEDSAVYFCARRRLPPDWYFDVWGQGTTVTVSS
VL: DVVMTQSPLSLPVTLGQPASISCRSSQSLVHSGGNTYLHWYQQKPGQPPKLLIYKVSNRFSGVPDRFSGSGSGTDFTLKISRVEAEDVGVYFCSQSTHVPWTFGGGTKVEIK
notes: hIgG1 backbone, CHO expressed
With B7 the Kd was 0.267 nM, the “Relative KD (KD of variant / KD of VH0/VK0)” value was 7.46 and the koff was 0.000414 s⁻¹.

B8: VH1/VK3 (antibody, V domains shown)
VH: QVQLVQSGAELKKPGSSVKVSCKASGYAFSNYFIEWVKQPPGKGLEWIGLNIPGSGGSNYAEKFKGRATITADKSTSTAYMELSSLTSEDSAVYFCARRRLPPDWYFDVWGQGTTVTVSS
VL: DVVMTQSPLSLPVTLGQPASISCRSSQSLVHSGGNTYLHWYQQKPGQPPKLLIYKVSNRFSGVPDRFSGSGSGTDFTLKISRVEAEDVGVYFCSQSTHVPWTFGGGTKVEIK
notes: hIgG1 backbone, CHO expressed
For B8, the Kd was 0.223 nM, the “Relative KD (KD of variant / KD of VH0/VK0)” value was 6.23 and the koff was 0.000365 s⁻¹.

B9: VH8/VK1 (antibody, V domains shown)
VH: QVQLVQSGAEVKKPGSSVKVSCKASGYAFSNYFIEWVKQPPGKGLEWIGLNIPGSGGSNYAEKFKGRATITADKSTSTAYMELSSLRSEDTAVYYCARRRLPPDWYFDVWGQGTTVTVSS
VL: DVVMTQSPLSLPVTLGQPASISCRSSQSLVHSDGNTYLHWYQQKPGQPPKLLIYKVSNRFSGVPDRFSGSGSGTDFTLKISRVEAEDVGVYFCSQSTHVPWTFGGGTKVEIK
notes: hIgG1 backbone, CHO expressed
With B9 the Kd was 0.053 nM, the “Relative KD (KD of variant / KD of VH0/VK0)” value was 1.48 and the koff was 0.00012 s⁻¹.

B10: VH7/VK1 (antibody, V domains shown)
VH: QVQLVQSGAELKKPGSSVKVSCKASGYAFSNYFIEWVKQPPGKGLEWIGLNIPGSGGSNYAEKFKGRATITADKSTSTAYMELSSLRSEDTAVYYCARRRLPPDWYFDVWGQGTTVTVSS
VL: DVVMTQSPLSLPVTLGQPASISCRSSQSLVHSDGNTYLHWYQQKPGQPPKLLIYKVSNRFSGVPDRFSGSGSGTDFTLKISRVEAEDVGVYFCSQSTHVPWTFGGGTKVEIK
notes: hIgG1 backbone, CHO expressed
For B10, the Kd was 0.0499 nM, the “Relative KD (KD of variant / KD of VH0/VK0)” value was 1.39 and the koff was 0.000113 s⁻¹.

B11: VH4/VK3 (antibody, V domains shown)
VH: QVQLVQSGAEVKKPGSSVKVSCKASGYAFSNYFIEWVKQPPGKGLEWIGLNIPGSGGSNYAEKFKGRVTITADKSTSTAYMELSSLRSEDTAVYYCARRRLPPDWYFDVWGQGTTVTVSS
VL: DVVMTQSPLSLPVTLGQPASISCRSSQSLVHSGGNTYLHWYQQKPGQPPKLLIYKVSNRFSGVPDRFSGSGSGTDFTLKISRVEAEDVGVYFCSQSTHVPWTFGGGTKVEIK
notes: hIgG1 backbone, CHO expressed
B11 was tested, and the Kd was 0.287 nM, the “Relative KD (KD of variant / KD of VH0/VK0)” value was 8.02 and the koff was 0.000466 s⁻¹.

B12: VH1/VK1 (antibody, V domains shown)
VH: QVQLVQSGAELKKPGSSVKVSCKASGYAFSNYFIEWVKQPPGKGLEWIGLNIPGSGGSNYAEKFKGRATITADKSTSTAYMELSSLTSEDSAVYFCARRRLPPDWYFDVWGQGTTVTVSS
VL: DVVMTQSPLSLPVTLGQPASISCRSSQSLVHSDGNTYLHWYQQKPGQPPKLLIYKVSNRFSGVPDRFSGSGSGTDFTLKISRVEAEDVGVYFCSQSTHVPWTFGGGTKVEIK
notes: hIgG1 backbone, CHO expressed
B12 was tested, and the Kd was 0.0475 nM, the “Relative KD (KD of variant / KD of VH0/VK0)” value was 1.33 and the koff was 0.00011 s⁻¹.

B13: VH4/VK2 (antibody, V domains shown)
VH: QVQLVQSGAEVKKPGSSVKVSCKASGYAFSNYFIEWVKQPPGKGLEWIGLNIPGSGGSNYAEKFKGRVTITADKSTSTAYMELSSLRSEDTAVYYCARRRLPPDWYFDVWGQGTTVTVSS
VL: DVVMTQSPLSLPVTLGQPASISCRSSQSLVHSDGNTYLHWYQQKPGQPPKLLIYKVSNRFSGVPDRFSGSGSGTDFTLKISRVEAEDVGVYYCSQSTHVPWTFGGGTKVEIK
notes: hIgG1 backbone, CHO expressed
For B13, the Kd was 0.0596 nM, the “Relative KD (KD of variant / KD of VH0/VK0)” value was 1.66 and the koff was 0.000129 s⁻¹.

B14: VH3/VK3 (antibody, V domains shown)
VH: QVQLVQSGAEVKKPGSSVKVSCKASGYAFSNYFIEWVKQPPGKGLEWIGLNIPGSGGSNYAEKFKGRVTITADKSTSTAYMELSSLRSEDSAVYFCARRRLPPDWYFDVWGQGTTVTVSS
VL: DVVMTQSPLSLPVTLGQPASISCRSSQSLVHSGGNTYLHWYQQKPGQPPKLLIYKVSNRFSGVPDRFSGSGSGTDFTLKISRVEAEDVGVYFCSQSTHVPWTFGGGTKVEIK
notes: hIgG1 backbone, CHO expressed
B14 was tested, and the Kd was 0.314 nM, the “Relative KD (KD of variant / KD of VH0/VK0)” value was 8.77 and the koff was 0.000497 s⁻¹.

B15: VH7/VK3 (antibody, V domains shown)
VH: QVQLVQSGAELKKPGSSVKVSCKASGYAFSNYFIEWVKQPPGKGLEWIGLNIPGSGGSNYAEKFKGRATITADKSTSTAYMELSSLRSEDTAVYYCARRRLPPDWYFDVWGQGTTVTVSS
VL: DVVMTQSPLSLPVTLGQPASISCRSSQSLVHSGGNTYLHWYQQKPGQPPKLLIYKVSNRFSGVPDRFSGSGSGTDFTLKISRVEAEDVGVYFCSQSTHVPWTFGGGTKVEIK
notes: hIgG1 backbone, CHO expressed
B15 was tested, and the Kd was 0.222 nM, the “Relative KD (KD of variant / KD of VH0/VK0)” value was 6.2 and the koff was 0.000344 s⁻¹.

B16: VH1/VK2 (antibody, V domains shown)
VH: QVQLVQSGAELKKPGSSVKVSCKASGYAFSNYFIEWVKQPPGKGLEWIGLNIPGSGGSNYAEKFKGRATITADKSTSTAYMELSSLTSEDSAVYFCARRRLPPDWYFDVWGQGTTVTVSS
VL: DVVMTQSPLSLPVTLGQPASISCRSSQSLVHSDGNTYLHWYQQKPGQPPKLLIYKVSNRFSGVPDRFSGSGSGTDFTLKISRVEAEDVGVYYCSQSTHVPWTFGGGTKVEIK
notes: hIgG1 backbone, CHO expressed
For B16, the Kd was 0.0487 nM, the “Relative KD (KD of variant / KD of VH0/VK0)” value was 1.36 and the koff was 0.000116 s⁻¹.

B17: VH1/VK0 (antibody, V domains shown)
VH: QVQLVQSGAELKKPGSSVKVSCKASGYAFSNYFIEWVKQPPGKGLEWIGLNIPGSGGSNYAEKFKGRATITADKSTSTAYMELSSLTSEDSAVYFCARRRLPPDWYFDVWGQGTTVTVSS
VL: DVVMTQTPLSLPVSLGDQASISCRSSQSLVHSDGNTYLHWYLQKPGQSPKLLIYKVSNRFSGVPDRFSGSGSGTDFTLKISRVEAEDLGVYFCSQSTHVPWTFGGGTKLEIK
notes: hIgG1 backbone, CHO expressed
In the case of B17, the Kd is reported as 0.0427 nM, the “Relative KD (KD of variant / KD of VH0/VK0)” value is reported as 1.19 and the koff is reported as 0.000109 s⁻¹.
